Results reported in article PMC2635894 (Biochemistry, 2008).
coumarin = not defined here

T1: HDAC8 (histone deacetylase 8) (Homo sapiens, UniProt Q9BY41, D101N)
T1 sequence (Q9BY41 1-377 D101N): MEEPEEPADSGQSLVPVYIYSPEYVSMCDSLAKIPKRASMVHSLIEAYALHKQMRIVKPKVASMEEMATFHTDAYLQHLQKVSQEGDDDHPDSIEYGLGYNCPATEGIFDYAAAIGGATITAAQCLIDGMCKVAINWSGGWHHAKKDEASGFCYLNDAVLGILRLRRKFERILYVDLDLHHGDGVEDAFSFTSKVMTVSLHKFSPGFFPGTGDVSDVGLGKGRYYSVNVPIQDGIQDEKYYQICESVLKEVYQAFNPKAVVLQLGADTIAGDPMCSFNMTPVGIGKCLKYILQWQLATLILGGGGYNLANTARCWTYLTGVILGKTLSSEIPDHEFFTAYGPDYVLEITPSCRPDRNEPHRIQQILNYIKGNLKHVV

T2: HDAC8 (histone deacetylase 8) (Homo sapiens, UniProt Q9BY41, D101E)
T2 sequence (Q9BY41 1-377 D101E): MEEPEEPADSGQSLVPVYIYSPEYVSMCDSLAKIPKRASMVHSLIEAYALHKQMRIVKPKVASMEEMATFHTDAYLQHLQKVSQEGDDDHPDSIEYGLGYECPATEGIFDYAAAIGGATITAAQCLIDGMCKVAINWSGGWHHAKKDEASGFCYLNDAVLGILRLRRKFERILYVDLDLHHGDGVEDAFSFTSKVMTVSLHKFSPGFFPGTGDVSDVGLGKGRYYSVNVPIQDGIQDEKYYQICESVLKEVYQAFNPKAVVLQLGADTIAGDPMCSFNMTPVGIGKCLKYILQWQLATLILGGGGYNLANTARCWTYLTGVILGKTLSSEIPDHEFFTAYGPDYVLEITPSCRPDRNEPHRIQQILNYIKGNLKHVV

T3: HDAC8 (histone deacetylase 8) (Homo sapiens, UniProt Q9BY41, D101A)
T3 sequence (Q9BY41 1-377 D101A): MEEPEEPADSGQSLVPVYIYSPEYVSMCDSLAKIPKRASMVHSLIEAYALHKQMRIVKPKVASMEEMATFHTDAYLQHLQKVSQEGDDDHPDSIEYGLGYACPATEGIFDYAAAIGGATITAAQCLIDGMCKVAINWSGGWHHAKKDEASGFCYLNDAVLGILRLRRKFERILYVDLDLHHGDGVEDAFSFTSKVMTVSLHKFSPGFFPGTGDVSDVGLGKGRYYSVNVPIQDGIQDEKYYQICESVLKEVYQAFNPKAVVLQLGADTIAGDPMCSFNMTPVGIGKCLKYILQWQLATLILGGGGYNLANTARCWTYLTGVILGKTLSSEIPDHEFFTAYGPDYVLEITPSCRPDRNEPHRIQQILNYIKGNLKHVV

T4: D101A HDAC8 (human histone deacetylase 8, D101A variant) (human, UniProt Q9BY41 1-377, D101A)
T4 sequence: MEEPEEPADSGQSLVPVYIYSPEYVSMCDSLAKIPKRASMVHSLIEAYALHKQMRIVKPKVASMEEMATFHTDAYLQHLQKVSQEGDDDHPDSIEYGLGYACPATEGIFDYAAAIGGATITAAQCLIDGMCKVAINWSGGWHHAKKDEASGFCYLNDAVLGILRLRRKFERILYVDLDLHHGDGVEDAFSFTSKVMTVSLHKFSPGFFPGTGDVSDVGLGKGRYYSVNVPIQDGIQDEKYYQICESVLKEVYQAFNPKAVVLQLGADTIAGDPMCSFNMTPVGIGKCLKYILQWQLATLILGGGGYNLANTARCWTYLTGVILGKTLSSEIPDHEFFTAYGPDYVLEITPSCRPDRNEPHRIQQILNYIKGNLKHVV

T5: D101N HDAC8 (human histone deacetylase 8, D101N variant) (human, UniProt Q9BY41 1-377, D101N)
T5 sequence: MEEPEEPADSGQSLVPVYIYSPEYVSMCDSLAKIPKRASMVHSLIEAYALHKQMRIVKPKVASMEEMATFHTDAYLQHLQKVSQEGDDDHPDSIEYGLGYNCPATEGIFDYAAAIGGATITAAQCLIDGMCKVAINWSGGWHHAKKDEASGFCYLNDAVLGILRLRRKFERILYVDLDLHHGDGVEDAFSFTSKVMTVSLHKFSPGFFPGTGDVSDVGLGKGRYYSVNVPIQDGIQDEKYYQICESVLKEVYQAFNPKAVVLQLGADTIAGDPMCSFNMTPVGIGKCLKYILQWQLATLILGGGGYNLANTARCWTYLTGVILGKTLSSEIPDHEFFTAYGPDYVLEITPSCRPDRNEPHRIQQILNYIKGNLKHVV

T6: D101L HDAC8 (human histone deacetylase 8, D101L variant) (human, UniProt Q9BY41 1-377, D101L)
T6 sequence: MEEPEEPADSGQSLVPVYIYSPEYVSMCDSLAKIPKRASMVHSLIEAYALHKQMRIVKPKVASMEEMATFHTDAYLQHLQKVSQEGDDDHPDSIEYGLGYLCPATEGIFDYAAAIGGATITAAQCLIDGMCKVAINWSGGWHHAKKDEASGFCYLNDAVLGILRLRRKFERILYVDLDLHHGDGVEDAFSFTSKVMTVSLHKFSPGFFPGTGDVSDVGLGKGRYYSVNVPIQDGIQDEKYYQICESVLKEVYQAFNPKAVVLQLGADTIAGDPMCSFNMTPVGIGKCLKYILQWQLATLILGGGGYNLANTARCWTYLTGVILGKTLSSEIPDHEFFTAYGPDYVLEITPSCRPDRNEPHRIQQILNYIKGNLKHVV

T7: D101E HDAC8 (human histone deacetylase 8, D101E variant) (human, UniProt Q9BY41 1-377, D101E)
T7 sequence: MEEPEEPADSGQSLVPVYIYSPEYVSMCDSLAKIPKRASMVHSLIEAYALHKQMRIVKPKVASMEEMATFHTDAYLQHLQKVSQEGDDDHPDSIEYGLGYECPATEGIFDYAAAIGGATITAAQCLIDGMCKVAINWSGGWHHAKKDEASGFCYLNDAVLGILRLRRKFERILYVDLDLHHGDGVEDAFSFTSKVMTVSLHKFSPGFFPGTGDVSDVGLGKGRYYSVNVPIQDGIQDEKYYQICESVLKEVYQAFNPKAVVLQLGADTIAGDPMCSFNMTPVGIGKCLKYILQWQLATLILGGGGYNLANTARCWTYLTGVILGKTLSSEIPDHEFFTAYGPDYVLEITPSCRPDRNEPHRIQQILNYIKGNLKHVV


Assays:
[1] = molecular target: T1, HDAC8 (histone deacetylase 8); assay: X-ray crystal structure; format: binding
[2] = molecular target: T2, HDAC8 (histone deacetylase 8); assay: X-ray crystal structure; format: binding
[3] = molecular target: T3, HDAC8 (histone deacetylase 8); assay: X-ray crystal structure; format: binding
[4] = molecular target: T4, D101A HDAC8 (human histone deacetylase …); assay: cell-based or functional assay
[5] = molecular target: T5, D101N HDAC8 (human histone deacetylase …); assay: cell-based or functional assay
[6] = molecular target: T6, D101L HDAC8 (human histone deacetylase …); assay: cell-based or functional assay
[7] = molecular target: T7, D101E HDAC8 (human histone deacetylase …); assay: cell-based or functional assay

| KM of deacetylation (Fluor de Lys assay, Co2+ enzyme, 25°C, pH 8.0) [4] | kcat/KM of deacetylation (Fluor de Lys assay, Co2+ enzyme, 25°C, pH 8.0) [4] | KM of deacetylation (Fluor de Lys assay, Co2+ enzyme, 25°C, pH 8.0) [5] | kcat/KM of deacetylation (Fluor de Lys assay, Co2+ enzyme, 25°C, pH 8.0) [5] | KM of deacetylation (Fluor de Lys assay, Co2+ enzyme, 25°C, pH 8.0) [6] | KM of deacetylation (Fluor de Lys assay, Co2+ enzyme, 25°C, pH 8.0) [7] | kcat/KM of deacetylation (Fluor de Lys assay, Co2+ enzyme, 25°C, pH 8.0) [7] | Molecule | X-ray crystal structure (2.65 Å) [1] | X-ray crystal structure (2.85 Å) [2] | X-ray crystal structure (2.55 Å) [3] |
| --- | --- | --- | --- | --- | --- | --- | --- | --- | --- | --- |
|  |  |  |  |  |  |  | CN(C)c1ccc(C(=O)NCCCCCCC(=O)NO)cc1 [M344, 4-(dimethylamino)-N-[7-(hydroxyamino)-7-oxoheptyl]-benzamide] | The alternate conformer is stabilized by a hydrogen bond interaction with N101 in D101N HDAC8 | Two conformations of the bound inhibitor are observed in the active sites of D101E, D101A and D101N HDACs | Two conformations of the bound inhibitor are observed in the active sites of D101E, D101A and D101N HDACs |
| > 1000 μM | 0.23 M^−1s^−1 | > 1000 μM | 0.23 M^−1s^−1 | > 1000 μM | 140 μM | 1100 M^−1s^−1 | Ac-RHK(Ac)K(Ac)-coumarin (reading uncertain) [acetylated tetrapeptide substrate (N-acetyl-arginine-histidine-acetyllysine-acetyllysine-coumarin)] |  |  |  |
